This passage reports Kd results from paper PMC4610412 (2016).

Where no end group is shown, it is not given here. [ ]: non-standard residue; d: D form. pT = C[C@@H](OP(=O)(O)O)[C@H](N)C(=O)O; pS = N[C@@H](COP(=O)(O)O)C(=O)O Some results are limits rather than exact numbers.

One experiment has as its target T1, pCdc25C (Homo sapiens).
T1 chain: EQPL[pT]PVTDL
In words: ITC. (ITC needs no label: the signal is the heat of the interaction.)

The target of another experiment is T2, cis-locked inhibitor (also: cis-locked alkene isostere, place not given here).
T2 chain: FF[pS]PR
Briefly: NMR titration.

For the next experiment, the target named is T3, trans-locked inhibitor (also: trans-locked alkene isostere, place not given here).
T3 chain: FF[pS]PR
Briefly: NMR titration.

B1: Pin1 PPIase domain (isolated) PPIase (protein)
chain: PARVRCSHLLVKHSQSRRPSSWRQEKITRTKEEALELINGYIQKIKSGEEDFESLASQFSDCSSAKARGDLGAFSRGQMQKPFEDASFALRTGEMSGPVFTDSGIHIILRTE
Turning to B1, the Kd (commonly a measure of binding affinity in units of concentration) with pCdc25C was over 1000 µM; in the experiment with cis-locked inhibitor, 7 µM; in the experiment with trans-locked inhibitor it was 66 µM.
